From the supplement of paper PMC10065799, “High-throughput profiling of sequence recognition by tyrosine kinases and SH2 domains using bacterial peptide display” (eLife, 2023)
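Wherever SH2 binding enrichment of the phosphorylated peptide, bacterial display is given: peptide library displayed on the E. coli surface as eCPX fusions, selected cells deep-sequenced, score is each peptide's frequency after selection divided by its frequency in the input.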

What follows are sequences tested on c-Abl (mouse) (assay: phosphorylation enrichment, bacterial display (enrichment ratio); higher = better substrate or ligand; peptides without Tyr show the background).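 Further: 11-residue human phosphosite peptides and single-mutation variants displayed on the E. coli surface, counted by deep sequencing, each peptide's frequency after selection divided by its frequency in the unselected input library; frequency after pTyr selection over input frequency; kinase dosed for 20-30% of maximal phosphorylation in three min.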
For CQKRKYIEIDS [SDAD1_Y580_S575C], the phosphorylation enrichment was 0.446. In the case of GRLFAYPDTHR [CAT_Y358], the phosphorylation enrichment is reported as 0.597. With PAGSGYPAFLG [ATP6V1A_Y374_D371G_YF] the phosphorylation enrichment was 0.869. Sequence QKMFDYLKEKK [RYR2_Y3780_L3778F] has a phosphorylation enrichment of 0.763. Sequence CTTIHYNYMCN [TP53_Y234] has a phosphorylation enrichment of 0.471. TKQLTYEEQFL [PIK3C3_Y310_D314Y_YF] gave a phosphorylation enrichment of 0.661. Sequence MPLTEYLKQIK [CNGB3_Y200_R203Q] has a phosphorylation enrichment of 0.844. LVQAEYWHDPI [PPT1_Y185] showed a phosphorylation enrichment of 1.36. With AFLLLCFNDTH [BMP15_Y235_Y235C] the phosphorylation enrichment was 1.01. RGGWVYVLHPT [TRMT61A_Y67] gave a phosphorylation enrichment of 0.702. Work on LGSVVYAQSKE [KCNQ2_Y226_H228Q] yielded a phosphorylation enrichment of 1.24. With NAPNSYGRRPT [CDKN2A_Y44_I49T] the phosphorylation enrichment was 0.79. For EASEQYLTKAS [NRCAM_Y739], the phosphorylation enrichment was 0.798. Sequence FLAVGYHMPHI [IDS_Y225_K227M] has a phosphorylation enrichment of 1.33. PVQAVYQKVVA [HBB_Y131_A130V] was tested, and the phosphorylation enrichment was 0.203. RAFRRYLLKQK [SCN2A_Y1919_YF] showed a phosphorylation enrichment of 0.531. Work on CTLTHYKSAVK [ASNS_Y555_R550C] yielded a phosphorylation enrichment of 0.529. RLLRGYRQDAF [HLA-A_Y137_F133L_YF] showed a phosphorylation enrichment of 0.807. Sequence FDNPIYQKTTE [LDLR_Y828_V827I] has a phosphorylation enrichment of 1.82. AGTILYHAHLG [ASS1_Y291_D296G] showed a phosphorylation enrichment of 0.727. For FFLGKYLQEVL [KLB_Y910_YF], the phosphorylation enrichment was 0.665. EPSVDCCVVKI [CAD_Y735_Y735C] gave a phosphorylation enrichment of 0.816. SLIDGYFRLTA [JAK2_Y372_YF] was tested, and the phosphorylation enrichment was 0.732. Work on AAAAVYTFLPD [MYORG_Y36_M35V] yielded a phosphorylation enrichment of 1.12. SSSNPYSTVTV [ACTN2_Y599_M604V] gave a phosphorylation enrichment of 0.567. CLSHCYFSQIR [MCM3AP_Y873_L870S] showed a phosphorylation enrichment of 0.484. LDVGEYCVPRG [BEX1_Y43_A40V] showed a phosphorylation enrichment of 3.73. TEIGQYGNGLK [MORC2_Y100_Q96E] showed a phosphorylation enrichment of 0.556. In the case of AATTAYSKPKR [MAP3K7_Y405], the phosphorylation enrichment is reported as 0.509. For STGWSYAGVAV [KLHL3_Y577_R575W], the phosphorylation enrichment was 0.463. Sequence TLMNAYSSRSH [KIF11_Y231] has a phosphorylation enrichment of 0.57. VHSGTYQVMVR [MYBPC3_Y1043_T1046M] showed a phosphorylation enrichment of 0.489. CTTIHYNFMCD [TP53_Y234_N239D_YF] showed a phosphorylation enrichment of 0.768.

What follows are sequences tested against SHP2-C SH2 (assay: SH2 binding enrichment of the phosphorylated peptide, bacterial display (enrichment ratio); higher = better substrate or ligand; peptides without Tyr show the background).
Sequence CQKRKYIEIDS [SDAD1_Y580_S575C] has an SH2 binding enrichment of 0.892. GRLFAYPDTHR [CAT_Y358] gave an SH2 binding enrichment of 0.909. With PAGSGYPAFLG [ATP6V1A_Y374_D371G_YF] the SH2 binding enrichment was 0.778. Sequence QKMFDYLKEKK [RYR2_Y3780_L3778F] has an SH2 binding enrichment of 0.738. Work on CTTIHYNYMCN [TP53_Y234] yielded an SH2 binding enrichment of 2.41. Sequence TKQLTYEEQFL [PIK3C3_Y310_D314Y_YF] has an SH2 binding enrichment of 0.767. MPLTEYLKQIK [CNGB3_Y200_R203Q] gave an SH2 binding enrichment of 0.651. Sequence LVQAEYWHDPI [PPT1_Y185] has an SH2 binding enrichment of 0.638. With AFLLLCFNDTH [BMP15_Y235_Y235C] the SH2 binding enrichment was 1. In the case of RGGWVYVLHPT [TRMT61A_Y67], the SH2 binding enrichment is reported as 0.787. In the case of LGSVVYAQSKE [KCNQ2_Y226_H228Q], the SH2 binding enrichment is reported as 1.6. NAPNSYGRRPT [CDKN2A_Y44_I49T] gave an SH2 binding enrichment of 0.615. Work on EASEQYLTKAS [NRCAM_Y739] yielded an SH2 binding enrichment of 0.696. In the case of FLAVGYHMPHI [IDS_Y225_K227M], the SH2 binding enrichment is reported as 1.18. For PVQAVYQKVVA [HBB_Y131_A130V], the SH2 binding enrichment was 1.01. Sequence RAFRRYLLKQK [SCN2A_Y1919_YF] has an SH2 binding enrichment of 0.44. CTLTHYKSAVK [ASNS_Y555_R550C] showed an SH2 binding enrichment of 0.682. With RLLRGYRQDAF [HLA-A_Y137_F133L_YF] the SH2 binding enrichment was 0.965. Work on FDNPIYQKTTE [LDLR_Y828_V827I] yielded an SH2 binding enrichment of 0.966. With AGTILYHAHLG [ASS1_Y291_D296G] the SH2 binding enrichment was 0.543. Sequence FFLGKYLQEVL [KLB_Y910_YF] has an SH2 binding enrichment of 1.71. In the case of EPSVDCCVVKI [CAD_Y735_Y735C], the SH2 binding enrichment is reported as 1. Work on SLIDGYFRLTA [JAK2_Y372_YF] yielded an SH2 binding enrichment of 5.5. In the case of AAAAVYTFLPD [MYORG_Y36_M35V], the SH2 binding enrichment is reported as 0.79. SSSNPYSTVTV [ACTN2_Y599_M604V] showed an SH2 binding enrichment of 12.3. CLSHCYFSQIR [MCM3AP_Y873_L870S] was tested, and the SH2 binding enrichment was 1.15. In the case of LDVGEYCVPRG [BEX1_Y43_A40V], the SH2 binding enrichment is reported as 0.698. Work on TEIGQYGNGLK [MORC2_Y100_Q96E] yielded an SH2 binding enrichment of 0.432. With AATTAYSKPKR [MAP3K7_Y405] the SH2 binding enrichment was 0.712. With STGWSYAGVAV [KLHL3_Y577_R575W] the SH2 binding enrichment was 0.965. For TLMNAYSSRSH [KIF11_Y231], the SH2 binding enrichment was 0.552. VHSGTYQVMVR [MYBPC3_Y1043_T1046M] showed an SH2 binding enrichment of 0.628. CTTIHYNFMCD [TP53_Y234_N239D_YF] gave an SH2 binding enrichment of 1.85.

Each sequence was assayed against c-Src SH2 in the same assay as above.
For CQKRKYIEIDS [SDAD1_Y580_S575C], the SH2 binding enrichment was 2.53. In the case of GRLFAYPDTHR [CAT_Y358], the SH2 binding enrichment is reported as 0.508. For PAGSGYPAFLG [ATP6V1A_Y374_D371G_YF], the SH2 binding enrichment was 0.538. In the case of QKMFDYLKEKK [RYR2_Y3780_L3778F], the SH2 binding enrichment is reported as 0.363. For CTTIHYNYMCN [TP53_Y234], the SH2 binding enrichment was 4.14. Work on TKQLTYEEQFL [PIK3C3_Y310_D314Y_YF] yielded an SH2 binding enrichment of 0.698. MPLTEYLKQIK [CNGB3_Y200_R203Q] was tested, and the SH2 binding enrichment was 0.364. LVQAEYWHDPI [PPT1_Y185] showed an SH2 binding enrichment of 1.11. In the case of AFLLLCFNDTH [BMP15_Y235_Y235C], the SH2 binding enrichment is reported as 0.704. RGGWVYVLHPT [TRMT61A_Y67] gave an SH2 binding enrichment of 0.573. LGSVVYAQSKE [KCNQ2_Y226_H228Q] gave an SH2 binding enrichment of 0.528. NAPNSYGRRPT [CDKN2A_Y44_I49T] was tested, and the SH2 binding enrichment was 0.567. Sequence EASEQYLTKAS [NRCAM_Y739] has an SH2 binding enrichment of 0.417. Work on FLAVGYHMPHI [IDS_Y225_K227M] yielded an SH2 binding enrichment of 3.36. Work on PVQAVYQKVVA [HBB_Y131_A130V] yielded an SH2 binding enrichment of 1.3. For RAFRRYLLKQK [SCN2A_Y1919_YF], the SH2 binding enrichment was 0.454. In the case of CTLTHYKSAVK [ASNS_Y555_R550C], the SH2 binding enrichment is reported as 0.585. RLLRGYRQDAF [HLA-A_Y137_F133L_YF] was tested, and the SH2 binding enrichment was 0.465. For FDNPIYQKTTE [LDLR_Y828_V827I], the SH2 binding enrichment was 0.632. With AGTILYHAHLG [ASS1_Y291_D296G] the SH2 binding enrichment was 0.483. FFLGKYLQEVL [KLB_Y910_YF] showed an SH2 binding enrichment of 1.29. EPSVDCCVVKI [CAD_Y735_Y735C] gave an SH2 binding enrichment of 0.494. SLIDGYFRLTA [JAK2_Y372_YF] showed an SH2 binding enrichment of 1.13. With AAAAVYTFLPD [MYORG_Y36_M35V] the SH2 binding enrichment was 1.92. SSSNPYSTVTV [ACTN2_Y599_M604V] showed an SH2 binding enrichment of 3.35. CLSHCYFSQIR [MCM3AP_Y873_L870S] gave an SH2 binding enrichment of 1.23. LDVGEYCVPRG [BEX1_Y43_A40V] showed an SH2 binding enrichment of 0.503. Work on TEIGQYGNGLK [MORC2_Y100_Q96E] yielded an SH2 binding enrichment of 0.51. AATTAYSKPKR [MAP3K7_Y405] showed an SH2 binding enrichment of 0.693. With STGWSYAGVAV [KLHL3_Y577_R575W] the SH2 binding enrichment was 0.529. TLMNAYSSRSH [KIF11_Y231] showed an SH2 binding enrichment of 0.427. VHSGTYQVMVR [MYBPC3_Y1043_T1046M] showed an SH2 binding enrichment of 1.56. CTTIHYNFMCD [TP53_Y234_N239D_YF] gave an SH2 binding enrichment of 3.31.

What follows are sequences tested against Grb2 SH2 (UniProt P62993) in the same assay as above.
Sequence of Grb2 SH2 (P62993 whole entry, looked up): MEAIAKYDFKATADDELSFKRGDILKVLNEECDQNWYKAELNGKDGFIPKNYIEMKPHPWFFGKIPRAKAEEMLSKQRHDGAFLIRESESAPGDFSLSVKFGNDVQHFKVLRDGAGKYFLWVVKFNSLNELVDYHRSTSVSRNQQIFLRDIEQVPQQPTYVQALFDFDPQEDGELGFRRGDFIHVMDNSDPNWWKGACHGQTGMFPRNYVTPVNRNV
Sequence CQKRKYIEIDS [SDAD1_Y580_S575C] has an SH2 binding enrichment of 1.03. GRLFAYPDTHR [CAT_Y358] showed an SH2 binding enrichment of 0.84. Sequence PAGSGYPAFLG [ATP6V1A_Y374_D371G_YF] has an SH2 binding enrichment of 0.828. In the case of QKMFDYLKEKK [RYR2_Y3780_L3778F], the SH2 binding enrichment is reported as 0.743. For CTTIHYNYMCN [TP53_Y234], the SH2 binding enrichment was 1.25. TKQLTYEEQFL [PIK3C3_Y310_D314Y_YF] gave an SH2 binding enrichment of 0.98. MPLTEYLKQIK [CNGB3_Y200_R203Q] was tested, and the SH2 binding enrichment was 0.534. Work on LVQAEYWHDPI [PPT1_Y185] yielded an SH2 binding enrichment of 0.824. Work on AFLLLCFNDTH [BMP15_Y235_Y235C] yielded an SH2 binding enrichment of 1.01. In the case of RGGWVYVLHPT [TRMT61A_Y67], the SH2 binding enrichment is reported as 0.99. Work on LGSVVYAQSKE [KCNQ2_Y226_H228Q] yielded an SH2 binding enrichment of 0.974. With NAPNSYGRRPT [CDKN2A_Y44_I49T] the SH2 binding enrichment was 0.599. With EASEQYLTKAS [NRCAM_Y739] the SH2 binding enrichment was 0.901. FLAVGYHMPHI [IDS_Y225_K227M] gave an SH2 binding enrichment of 1.1. Sequence PVQAVYQKVVA [HBB_Y131_A130V] has an SH2 binding enrichment of 0.913. In the case of RAFRRYLLKQK [SCN2A_Y1919_YF], the SH2 binding enrichment is reported as 0.829. CTLTHYKSAVK [ASNS_Y555_R550C] gave an SH2 binding enrichment of 0.942. RLLRGYRQDAF [HLA-A_Y137_F133L_YF] showed an SH2 binding enrichment of 0.762. FDNPIYQKTTE [LDLR_Y828_V827I] gave an SH2 binding enrichment of 1.03. In the case of AGTILYHAHLG [ASS1_Y291_D296G], the SH2 binding enrichment is reported as 0.737. FFLGKYLQEVL [KLB_Y910_YF] was tested, and the SH2 binding enrichment was 1.99. For EPSVDCCVVKI [CAD_Y735_Y735C], the SH2 binding enrichment was 0.887. SLIDGYFRLTA [JAK2_Y372_YF] gave an SH2 binding enrichment of 1.01. For AAAAVYTFLPD [MYORG_Y36_M35V], the SH2 binding enrichment was 0.882. SSSNPYSTVTV [ACTN2_Y599_M604V] gave an SH2 binding enrichment of 0.667. With CLSHCYFSQIR [MCM3AP_Y873_L870S] the SH2 binding enrichment was 1.22. LDVGEYCVPRG [BEX1_Y43_A40V] showed an SH2 binding enrichment of 0.755. In the case of TEIGQYGNGLK [MORC2_Y100_Q96E], the SH2 binding enrichment is reported as 0.662. AATTAYSKPKR [MAP3K7_Y405] gave an SH2 binding enrichment of 0.935. In the case of STGWSYAGVAV [KLHL3_Y577_R575W], the SH2 binding enrichment is reported as 0.718. TLMNAYSSRSH [KIF11_Y231] showed an SH2 binding enrichment of 0.707. VHSGTYQVMVR [MYBPC3_Y1043_T1046M] showed an SH2 binding enrichment of 0.94. In the case of CTTIHYNFMCD [TP53_Y234_N239D_YF], the SH2 binding enrichment is reported as 1.74.
